Here are results for ten molecules from patent publication US20230002757A1 (ZHEJIANG NANOMAB TECHNOLOGY CENTER, published 2023).

One experiment concerns the target T1, MSLN epitope domain 2 (UniProt Q13421 391-486, limits assumed).
T1 construct: domain: domain 2; also called domain 2 of MSLN
Put plainly: ELISA, supernatant.

The target of another experiment is T2, MSLN epitope domain 3 (UniProt Q13421 487-598, limits assumed).
T2 construct: domain: domain 3; also called domain 3 of MSLN
Description: ELISA, supernatant. On the technique in general: An ELISA detects its analyte on a solid surface through an enzyme-linked reagent.

Experiment [1] addresses T3, mesothelin (MSLN), full length (UniProt Q13421 296-598, limits assumed).
T3 construct: coating antigen of the ELISA; construct not described
Description: ELISA, supernatant.

The next experiment concerns the target T4, BCMA-His (human, UniProt Q02223 1-54).
T4 construct: coating antigen, 1 ug/mL; also called His-conjugated human BCMA; not shown: His tag
T4 sequence (looked up): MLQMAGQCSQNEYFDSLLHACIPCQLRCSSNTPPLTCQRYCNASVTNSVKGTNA
Put plainly: ELISA, BCMA-His coated 1 ug/mL.

For another experiment, the target named is T5, BCMA on RPMI8226 cells (UniProt Q02223 1-184, limits assumed).
T5 construct: whole, on cells
T5 sequence (looked up): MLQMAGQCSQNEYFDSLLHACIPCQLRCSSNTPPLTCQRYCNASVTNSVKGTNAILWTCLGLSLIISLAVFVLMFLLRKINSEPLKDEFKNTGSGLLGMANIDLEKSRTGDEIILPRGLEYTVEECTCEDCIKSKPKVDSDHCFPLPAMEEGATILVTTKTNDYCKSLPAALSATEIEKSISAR
Put plainly: FACS on RPMI8226 cells.

The next experiment deals with T6, Anti-His.
T6 construct: ELISA coating control
Put plainly: ELISA, Anti-His coated 1 ug/mL.

For the next experiment, the target named is T7, human IgG.
T7 construct: ELISA coating control
Put plainly: ELISA, human IgG coated 1 ug/mL.

Experiment [2] deals with T8, EGFR on 293T-EGFR cells (293T cells negative for BCMA expression) (UniProt P00533 25-1210, limits assumed).
T8 construct: whole, on cells; negative control cells; that they carry EGFR is read from the label only
Put plainly: flow cytometry. On the technique in general: A flow cytometer gives signals particle by particle.

Experiment [3] deals with T8, EGFR on 293T-EGFR cells (293T cells …). Put plainly: FACS on 293T-EGFR cells (BCMA negative).
Another experiment deals with T9, BCMA-Fc (human, UniProt Q02223 1-54).
T9 construct: coating antigen, 1 ug/mL; also called Fc-conjugated human BCMA; not shown: Fc
T9 sequence (looked up): T4 sequence (looked up)
Put plainly: ELISA, BCMA-Fc coated 1 ug/mL.

Another experiment deals with T10, MSLN epitope domain 1 (UniProt Q13421 296-390, limits assumed).
T10 construct: domain: domain 1; also called domain 1 of MSLN
T10 sequence (Q13421 296-390 limits assumed): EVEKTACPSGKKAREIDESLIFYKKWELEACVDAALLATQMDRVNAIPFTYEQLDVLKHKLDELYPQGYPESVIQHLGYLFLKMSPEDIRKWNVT
Description: ELISA, supernatant.

T3 sequence (Q13421 other isoform, or with tags, fused parts or gaps limits assumed): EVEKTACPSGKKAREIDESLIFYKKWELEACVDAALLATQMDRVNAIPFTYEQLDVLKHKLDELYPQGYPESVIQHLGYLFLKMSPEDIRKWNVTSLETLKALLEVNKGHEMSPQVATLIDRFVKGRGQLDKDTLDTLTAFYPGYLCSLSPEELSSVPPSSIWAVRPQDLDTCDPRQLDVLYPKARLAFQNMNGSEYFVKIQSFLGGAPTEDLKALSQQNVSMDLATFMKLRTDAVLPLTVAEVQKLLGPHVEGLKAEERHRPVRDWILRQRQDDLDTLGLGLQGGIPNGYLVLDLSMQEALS
T1 sequence (Q13421 other isoform, or with tags, fused parts or gaps limits assumed): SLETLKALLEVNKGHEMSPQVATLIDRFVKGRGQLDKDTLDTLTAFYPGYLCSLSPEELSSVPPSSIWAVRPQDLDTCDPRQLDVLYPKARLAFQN
T2 sequence (Q13421 495-606 limits assumed): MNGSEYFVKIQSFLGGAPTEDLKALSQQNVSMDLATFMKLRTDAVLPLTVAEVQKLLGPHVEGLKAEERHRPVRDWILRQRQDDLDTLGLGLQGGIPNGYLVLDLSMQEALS

B1: NBL501#002 (VHH)
VHH: QVQLVESGGGLVQAGGSLRLSCAASISIRRINAMGWYRQAPGKERELVAVISSPNKTLYADSVKGRFTISKDNYTNTLYLQMNSLKPEDTAMYYCSAWRIGVDTTDYYGQGTQVTVSS
notes: tested as supernatant in ELISA
Consider B1, for which the binding result in the experiment with MSLN epitope domain 2 and in the experiment with MSLN epitope domain 3 was “no binding” in each case.

B2: NBL501#006 (VHH)
VHH: QVQLVESGGGLVQAGGSLRLSCAASGSADSIPAMGWYRQAPGKEREYLAAISSGTNTYYASSAKGRFAISRNNANNTLYLQMNSLKPEDTAMYYCATCSSYYYCSGPYVRSWGQGTQVTVSS
notes: as for B1
Take B2: the binding result in [1] was “no binding”.

B3: NBL501#003 (VHH)
VHH: QVQLVESGGGLVQPGGSLRLSCAASGITLDYYAIGWFRQAPGKEREGVSCISSSGGSTNYADSVKGRFTMSRDNAKNTVYLQMNSLKPEDTAVYYCAADIHCSGYVLFSPSDFGNWGQGTQVTVSS
notes: as for B1
Turning to B3, in experiment [1], the binding result is on record as “no binding”.

B4: NBL501#004 (VHH)
VHH: EVQVVESGGGLVQAGGSLRLSCVPSGSISSIYAMGWYRQALGPERELVAAQTLGGGTYYANPVKGRFTIYRDNDKNTLYLQMNNLKPEDTAMYYCATPGEHWGSSDVTNWGQGTQVTVSS
notes: as for B1
For B4, the binding result with MSLN epitope domain 2 and with MSLN epitope domain 3 was “no binding” each time.

B5: NBL501#008 (VHH)
VHH: QVQLVESGGGLVQAGGSLRLSCVASGIVFRLNAMGWFRQAPGRERELVATIASGGWAYYGDTMSGRVTISRDNDKNTLYLEMNSLKPEDSAMYYCSAGGARPHSWGQGTQVTVSS
notes: as for B1
Turning to B5, the binding result with MSLN epitope domain 2 and with MSLN epitope domain 3 was “no binding” each time.

B6: NBL501#010 (VHH)
VHH: QVKLEESGGGLVQAGGSLRLSCVASGSIFSINAMGWYRRAPGKERELVASISSDGSIYYADSVKGRFTISRDNAKNTLYLQMNSLKPEDTAMYDCAALGVVNVGVRPTLEYIYWGQGTQVTVSS
notes: as for B1
B6: the binding result in experiment [1] was “no binding”.

B7: NBL501#011 (VHH)
VHH: QVQLVESGGGLVQAGGSLRLSCAVFGNTGAIHAMAWYRQAPGKQREEVARISFGDGRTVYGDSVKGRFTISGDDAKNTMYLQMNILKAEDTAEYYCNAVFLGIGPTGRFEYEYWGQGTQVTVSS
notes: as for B1
In the case of B7, in experiment [1], the binding result is reported as “no binding”.

B8: NBL501#007 (VHH)
VHH: QVQLVESGGGLVQPGGSLTLSCAASGFTFSSYYMSWVRQAPGKGPEWVSIISTGGASTVYTDSVKGRFTASRDNAKNTLYLQMNSLKPEDTALYYCVRGNSRSGLIPRAYWGQGTQVTVSS
notes: as for B1
Regarding B8, the binding result in [1] is listed as “no binding”.

B9: NBL507-A2L1-P1R2-1H1-(275)-PME207-SEQF_G11 (VHH)
VHH: QVQLVESGGGLVHPGGSLRLACAASERILSFNVMGWYRQAPGQQREVVATITSVGRTYYADSVKGRFTIFKDNGKNTYLQMSSLKPEDTAVYYCKAVTVGDVDTEYWGQGTQVTVSS
notes: purified VHH
On to B9, for which the OD450 with BCMA-His was found to be 2.11 OD450; in the experiment with Anti-His, 0.98 OD450; in the experiment with human IgG, 0.04 OD450; with BCMA-Fc it was 3.3 OD450. Besides, the MFI with BCMA on RPMI8226 cells came to 532 MFI; in [3] it was 222 MFI. In addition, the binding result in experiment [2] was “no binding”.

B10: NBL501#009 (VHH)
VHH: EVQVVESGGGLVQAGGSLRLSCVASGFTFSVAAMRWYRQAPGKQREWVASAFSDGNLHYEDFVKGRFTISRDDAKNTLYLQMDSLKPEDTAVYYCNAGTPSRAYWGQGTQVTVSS
notes: as for B1
With B10, the binding result in the experiment with MSLN epitope domain 3 and with MSLN epitope domain 1 was “no binding” throughout.
